Laboratory results as given in US20060057669A1, “Inactive transcription factor tif-ia and uses thereof” (priority 2002, published 2006).
Each block holds one molecule with its values, some of them ahead of it.

Experiments:
Assay type in all cases: biochemical
Pol I transcription [1] = experiment: Complementation of Pol I transcription in nuclear extracts from rapamycin-treated FM3A cells
Experimental: (B) Complementation of transcriptional activity in nuclear extracts from rapamycin-treated cells. Transcription reactions contained nuclear extracts (30 μg) from untreated (NE) or rapamycin-treated (NERapa) FM3A cells. In lanes 3-7, fractions containing partially purified Pol I transcription factors were added to NERapa-containing reactions.
(C) TIF-IA activates transcription in nuclear extracts form rapamycin-treated cells. Reactions were complemented with either 1 μl (lanes 2 and 5) of cellular TIF-IA (PL-650 fraction) or 20 ng (lanes 3 and 6) of immunopurified recombinant TIF-IA that has been expressed in SF9 cells.
(A) mTOR rescues transcription in vitro. Pol I transcription was assayed in nuclear extracts from rapamycin-treated FM3A cells. Reactions were supplemented with 50 ng TIF-IA (lane 1) or 10 ng, 20 ng and 30 ng of HA-mTOR (lanes 3-5).
(B) S6K1 activates Pol I transcription in extracts from rapamycin-treated cells. NERapa was supplemented with 50 ng TIF-IA (lane 1) or 100, 150 and 200 ng of GST-S6K1 (lanes 3-5) or GST-S6K1dd (lanes 6-8).
(§1) Nuclear extracts were prepared from exponentially growing (8×10^5 cells/ml), density-arrested or PD98059-treated (CN Bioscience, Bad Soden, Germany) 40 μM, 0.5 hr) or rapamycin-treated FM3A cells (ATCC, Manassas, USA). 25 μl assays contained 50 ng of template DNA (pMr600/EcoRI), 30 μg nuclear extract proteins and 12 mM Hepes-KOH, [pH8.0], 0.1 mM EDTA, 5 mM MgCl2, 80 mM KCl, 10 mM creatine phosphate, 12% (v/v) glycerol, 0.66 mM each of ATP, GTP and CTP, 0.01 mM UTP and 0.5 μCi [α-^32P]UTP (5000 Ci/mmol). After incubation for 60 min at 30° C., RNA was extracted and analyzed on non-denaturing 5% polyacrylamide gels
mTOR and S6K1 were purified from HEK293T cells overexpressing HA-tagged mTOR or GST/myc-tagged S6K1, respectively. 5×10^6 cells were lysed in 0.8 ml IP buffer, centrifuged at 10,000×g for 20 min, and the supernatants were incubated for 4 hr at 4° C. with either 15 μg anti-HA antibodies bound to 20 μl protein G-agarose (for HA-mTOR) or 20 μl packed GST-glutathione beads (for GST-myc-S6K1). […]

Pol I transcription [2] = experiment: Complementation of Pol I transcription in nuclear extracts from PD98059-treated FM3A cells; conditions: standard transcription system containing ATP and GTP
Experimental: (C) TIF-IA, but not UBF, rescues Pol I transcription in extracts from PD98059-treated cells. Nuclear extracts from untreated or PD98059-treated FM3A cells were supplemented with 20 and 40 ng of purified TIF-IA and/or UBF (10 ng in lanes 7 and 9, 50 ng in lanes 3, 8 and 10).
(D) TIF-IA activates transcription in extracts from PD98059-treated cells in the presence of AMP-PNP and GMP-PNP. Nuclear extracts from PD98059-treated FM3A cells were supplemented with 40 ng of purified TIF-IA and assayed in the standard transcription system containing ATP and GTP (ATP, lanes 1, 2) or AMP-PNP and GMP-PNP (AMP-PNP, lanes 3, 4)
(D) ERK/RSK-dependent phosphorylation activates Pol I transcription in vitro. Nuclear extracts from PD98059-treated FM3A cells were supplemented with 40 ng of TIF-IA, 10 ng of HA-RSK, or 10 ng of HA-ERK as indicated, and transcriptional activity was assayed in the standard transcription system containing ATP and GTP (lanes 4-8) or AMP-PNP and GMP-PNP (lanes 9-13).
as §1
To test whether both TIF-IA and UBF, or TIF-IA alone, were targeted by ERK-mediated phosphorylation, nuclear extracts from untreated and PD98059-treated cells were assayed for rDNA transcription in the absence and presence of exogenous TIF-IA or UBF (FIG. 2C). If both UBF and TIF-IA were inactivated by PD98059, rescue of Pol I transcriptional activity would require both factors, whereas TIF-IA alone would be sufficient if it was the only factor that is inactivated by inhibition of the ERK pathway. […]

RSK2 = molecular target: T1, RSK2 (Mus musculus, UniProt P18654, A376E/A378E/F387I/G384D/H379Q/INS385D/L381M/N377E/Q380E/S369E/S386Y/T365E); experiment: In vitro kinase assay with immunopurified RSK2
T1 construct: made in house; host or cells: HEK293T (kinase, immunopurified via HA); E. coli BL21(DE3) (GST substrate)
Experimental: (A) Tryptic peptide maps of recombinant TIF-IA phosphorylated by RSK2 in vitro. GST/TIF-IA409-651 was phosphorylated with HA-RSK-CA in vitro and the phosphopeptide pattern was compared with that of wild-type TIF-IA and TIF-IA1-632 labeled in vivo.
HA-tagged ERK1/2 or RSK2-CA was overexpressed in HEK293T cells, immunopurified and immobilized to protein G agarose. After stringent washing, the beads were suspended in 20 μl of 1.5× kinase assay buffer (75 mM Tris-HCl [pH 8.0], 15 mM MgCl2, 1.5 mM DTT, 5% glycerol) and assayed for activity. 30 μl reactions contained 100 μM ATP, 0.2 μCi of […] (5000 Ci/mmol), 0.5-1 μg S6 peptide (RRSSLRA) or GST/TIF-IA (Yuan et al. EMBO Reports 3 (2002) 1082-1087) and 10 fmoles RSK. After incubation for 30 min at 30° C., 5 μl of the supernatants were spotted onto phosphocellulose paper (Whatman p81), washed with 150 mM orthophosphoric acid and quantified with a PhosphorImager (Molecular Dynamics, Inc.). Alternatively, labeled GST/TIF-IA was subjected to SDS-PAGE, blotted onto nitrocellulose, digested with trypsin and analyzed by two-dimensional phosphopeptide mapping.
Phosphoamino acid analysis has established that TIF-IA is exclusively phosphorylated on serine residues (data not shown). The C-terminal tryptic peptide of TIF-IA contains three S—P sites (FIG. 4B, upper panel), a known target motif for MAPKs. […]

T1 sequence (P18654 with tags, fused parts or gaps with the stated changes): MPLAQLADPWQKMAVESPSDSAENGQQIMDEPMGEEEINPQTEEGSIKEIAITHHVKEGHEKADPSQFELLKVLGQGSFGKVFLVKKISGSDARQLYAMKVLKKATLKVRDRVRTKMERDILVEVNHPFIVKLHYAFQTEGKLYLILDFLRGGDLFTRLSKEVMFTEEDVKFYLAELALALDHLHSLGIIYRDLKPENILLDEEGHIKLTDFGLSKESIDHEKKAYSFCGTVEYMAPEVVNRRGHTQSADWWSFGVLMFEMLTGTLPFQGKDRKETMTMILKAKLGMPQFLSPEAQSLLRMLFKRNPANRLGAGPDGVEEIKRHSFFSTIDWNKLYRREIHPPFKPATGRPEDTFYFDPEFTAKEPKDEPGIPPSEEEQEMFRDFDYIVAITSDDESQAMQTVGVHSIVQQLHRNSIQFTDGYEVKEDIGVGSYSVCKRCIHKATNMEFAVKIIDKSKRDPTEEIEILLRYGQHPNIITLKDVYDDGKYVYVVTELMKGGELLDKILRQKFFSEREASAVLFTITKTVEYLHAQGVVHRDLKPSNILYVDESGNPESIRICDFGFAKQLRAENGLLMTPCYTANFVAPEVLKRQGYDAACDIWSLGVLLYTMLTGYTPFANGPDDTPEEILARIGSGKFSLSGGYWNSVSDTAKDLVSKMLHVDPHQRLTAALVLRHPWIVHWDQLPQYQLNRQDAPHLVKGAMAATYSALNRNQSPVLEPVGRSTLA

Molecule: S6K1: GST/myc-tagged S6 kinase purified from HEK293T cells
rescue of Pol I transcription in extracts from rapamycin-treated cells (Pol I transcription [1]): activated Pol I transcription to an extent that compared to that of exogenous TIF-IA

B1: UBF: basal Pol I transcription initiation factor, FLAG-tagged UBF1 purified from Sf9 cells (protein, UniProt P17480 1-764, looked up)
Nucleolar transcription …: MNGEADCPTDLEMAAPKGQDRWSQEDMLTLLECMKNNLPSNDSSKFKTTESHMDWEKVAFKDFSGDMCKLKWVEISNEVRKFRTLTELILDAQEHVKNPYKGKKLKKHPDFPKKPLTPYFRFFMEKRAKYAKLHPEMSNLDLTKILSKKYKELPEKKKMKYIQDFQREKQEFERNLARFREDHPDLIQNAKKSDIPEKPKTPQQLWYTHEKKVYLKVRPDATTKEVKDSLGKQWSQLSDKKRLKWIHKALEQRKEYEEIMRDYIQKHPELNISEEGITKSTLTKAERQLKDKFDGRPTKPPPNSYSLYCAELMANMKDVPSTERMVLCSQQWKLLSQKEKDAYHKKCDQKKKDYEVELLRFLESLPEEEQQRVLGEEKMLNINKKQATSPASKKPAQEGGKGGSEKPKRPVSAMFIFSEEKRRQLQEERPELSESELTRLLARMWNDLSEKKKAKYKAREAALKAQSERKPGGEREERGKLPESPKRAEEIWQQSVIGDYLARFKNDRVKALKAMEMTWNNMEKKEKLMWIKKAAEDQKRYERELSEMRAPPAATNSSKKMKFQGEPKKPPMNGYQKFSQELLSNGELNHLPLKERMVEIGSRWQRISQSQKEHYKKLAEEQQKQYKVHLDLWVKSLSPQDRAAYKEYISNKRKSMTKLRGPNPKSSRTTLQSKSESEEDDEEDEDDEDEDEEEEDDENGDSSEDGGDSSESSSEDESEDGDENEEDDEDEDDDEDDDEDEDNESEGSSSSSSSSGDSSDSDSN
modifications: UBF1 FLAG tag
notes: basal Pol I transcription initiation factor, FLAG-tagged UBF1 purified from Sf9 cells
rescue of Pol I transcription in extracts from PD98059-treated cells (Pol I transcription [2]): had no effect

phosphorylation by RSK2 in vitro (RSK2): not phosphorylated
B2: GST/TIF-IA409-632: GST fusion of a TIF-IA C-terminal fragment lacking amino acids 633-651 (protein, UniProt Q9NYV6 409-632, looked up, fragment)
chain: SFLARAKFIPLITVKSCLDLLVNWLHIYLNNQDSGTKAFCDVALHGPFYSACQAVFYTFVFRHKQLLSGNLKEGLQYLQSLNFERIVMSQLNPLKICLPSVVNFFAAITNKYQLVFCYTIIERNNRQMLPVIRSTAGGDSVQICTNPLDTFFPFDPCVLKRSKKFIDPIYQVWEDMSAEELQEFKKPMKKDIVEDEDDDFLKGEVPQNDTVIGITPSSFDTHFR
modifications: GST fusion

phosphorylation by RSK2 in vitro (RSK2): efficiently phosphorylated
B3: GST/TIF-IA409-651: GST fusion of the C-terminal part of TIF-IA containing aa 410-651 (protein, UniProt Q9NYV6 410-651, looked up, fragment)
chain: FLARAKFIPLITVKSCLDLLVNWLHIYLNNQDSGTKAFCDVALHGPFYSACQAVFYTFVFRHKQLLSGNLKEGLQYLQSLNFERIVMSQLNPLKICLPSVVNFFAAITNKYQLVFCYTIIERNNRQMLPVIRSTAGGDSVQICTNPLDTFFPFDPCVLKRSKKFIDPIYQVWEDMSAEELQEFKKPMKKDIVEDEDDDFLKGEVPQNDTVIGITPSSFDTHFRSPSSSVGSPPVLYMQPSPL
modifications: GST fusion
